± gives the uncertainty stated by the source.
B1: POU domain, class 3, transcription factor 2, residues 262 to 338; numbered along this chain, P20265 (parent)
chain: EDTPTSDDLEQFAKQFKQRRIKLGFTQADVGLALGTLYGNVFSQTTICRFEALQLSFKNMCKLKPLLNKWLEEADSS

Variants of: B1
Assay: abundance fitness (aPCA) (normalised: wild type 0, dead -1); higher = more abundant; growth selection in yeast, the domain comes from the species named
Settings: Homo sapiens

In order of falling abundance fitness:
1. D7Q  0.211 ± 0.17
2. E73Y  0.129 ± 0.14
3. P65Q  0.124 ± 0.14
4. K69M  0.112 ± 0.14
5. S6A  0.108 ± 0.028
6. P4I  0.096 ± 0.08
7. P4H  0.075 ± 0.06
8. D75E  0.071 ± 0.034
9. K58E  0.069 ± 0.039
10. T46D  0.064 ± 0.046
11. Q15N  0.063 ± 0.11
12. P4K  0.063 ± 0.052
13. P4V  0.061 ± 0.034
14. G31A  0.047 ± 0.033
15. P65C  0.038 ± 0.2
16. T5C  0.038 ± 0.046
17. A74C  0.034 ± 0.046
18. D7R  0.031 ± 0.22
19. D7K  0.029 ± 0.4
20. S76R  0.028 ± 0.028
21. G31S  0.025 ± 0.038
22. G35Q  0.025 ± 0.046
23. Q18K  0.024 ± 0.062
24. S76K  0.021 ± 0.046
25. D7V  0.021 ± 0.094
26. V41G  0.021 ± 0.029
27. K69R  0.019 ± 0.056
28. E72V  0.017 ± 0.035
29. L53A  0.016 ± 0.034
30. G35R  0.016 ± 0.028
31. S76V  0.01 ± 0.032
32. K22A  0.009 ± 0.03
33. E72L  0.004 ± 0.035
34. V41W  0.004 ± 0.045
35. K69Q  -0.003 ± 0.087
36. Q15K  -0.003 ± 0.046
37. E1T  -0.006 ± 0.14
38. Q15D  -0.008 ± 0.068
39. T5S  -0.008 ± 0.032
40. S76P  -0.012 ± 0.044
41. L37E  -0.012 ± 0.035
42. T45S  -0.013 ± 0.032
43. G35A  -0.016 ± 0.033
44. E72A  -0.017 ± 0.037
45. V41S  -0.017 ± 0.045
46. Q44T  -0.018 ± 0.039
47. K64Y  -0.019 ± 0.068
48. L37Q  -0.027 ± 0.044
49. P4R  -0.027 ± 0.033
50. Q18T  -0.029 ± 0.051
51. Q54E  -0.03 ± 0.045
52. Q54D  -0.035 ± 0.063
53. E73G  -0.036 ± 0.05
54. A74K  -0.037 ± 0.051
55. S6E  -0.038 ± 0.032
56. K22L  -0.04 ± 0.035
57. A13V  -0.044 ± 0.034
58. D75Y  -0.046 ± 0.056
59. K17R  -0.05 ± 0.023
60. S6G  -0.05 ± 0.025
61. L37F  -0.053 ± 0.076
62. K22R  -0.054 ± 0.029
63. K58R  -0.058 ± 0.031
64. T46Q  -0.058 ± 0.045
65. K64M  -0.06 ± 0.05
66. K64Q  -0.067 ± 0.045
67. Q54T  -0.068 ± 0.054
68. Q15I  -0.068 ± 0.15
69. K14S  -0.073 ± 0.051
70. T45N  -0.08 ± 0.064
71. D75H  -0.081 ± 0.06
72. T5R  -0.082 ± 0.027
73. K58D  -0.088 ± 0.091
74. Q18M  -0.089 ± 0.045
75. S6D  -0.092 ± 0.042
76. S56D  -0.093 ± 0.065
77. G31T  -0.096 ± 0.048
78. T46I  -0.1 ± 0.053
79. E72I  -0.102 ± 0.058
80. E1L  -0.109 ± 0.065
81. Q54N  -0.113 ± 0.081
82. G31V  -0.113 ± 0.034
83. A28H  -0.116 ± 0.083
84. K22N  -0.117 ± 0.077
85. S43G  -0.12 ± 0.028
86. K58M  -0.12 ± 0.055
87. Q27S  -0.125 ± 0.035
88. T45L  -0.127 ± 0.033
89. Q18L  -0.13 ± 0.037
90. K64L  -0.131 ± 0.037
91. Q44N  -0.133 ± 0.06
92. S56T  -0.135 ± 0.041
93. K14C  -0.136 ± 0.11
94. L53T  -0.138 ± 0.046
95. L23Y  -0.139 ± 0.054
96. T5E  -0.144 ± 0.039
97. Q44M  -0.145 ± 0.042
98. S76I  -0.153 ± 0.063
99. Q54R  -0.156 ± 0.035
100. K58F  -0.163 ± 0.15
101. S43Q  -0.166 ± 0.045
102. L71Y  -0.168 ± 0.17
103. K22H  -0.168 ± 0.064
104. K17M  -0.171 ± 0.041
105. V30C  -0.176 ± 0.073
106. E72W  -0.177 ± 0.043
107. E1Y  -0.177 ± 0.18
108. P65R  -0.182 ± 0.051
109. K14W  -0.182 ± 0.082
110. T46M  -0.185 ± 0.041
111. T46A  -0.186 ± 0.03
112. G39H  -0.19 ± 0.074
113. K64W  -0.199 ± 0.04
114. Q54H  -0.2 ± 0.063
115. L37W  -0.201 ± 0.033
116. T46H  -0.208 ± 0.066
117. G31Y  -0.213 ± 0.097
118. E73H  -0.218 ± 0.27
119. F12M  -0.223 ± 0.14
120. Q54G  -0.23 ± 0.038
121. V30A  -0.23 ± 0.046
122. K69E  -0.231 ± 0.1
123. A13T  -0.255 ± 0.053
124. K69D  -0.264 ± 0.14
125. I47L  -0.267 ± 0.039
126. K69V  -0.273 ± 0.084
127. Q18Y  -0.295 ± 0.17
128. D75F  -0.3 ± 0.1
129. A28W  -0.301 ± 0.042
130. V30L  -0.306 ± 0.049
131. G39A  -0.314 ± 0.033
132. K17V  -0.316 ± 0.029
133. G39T  -0.325 ± 0.047
134. I47Y  -0.339 ± 0.13
135. K17H  -0.343 ± 0.067
136. Q27D  -0.356 ± 0.076
137. Q44F  -0.373 ± 0.11
138. K17E  -0.39 ± 0.035
139. G31F  -0.39 ± 0.14
140. Q44W  -0.399 ± 0.042
141. L53D  -0.411 ± 0.068
142. Q27N  -0.419 ± 0.096
143. Q54W  -0.436 ± 0.057
144. F12V  -0.442 ± 0.12
145. K69C  -0.449 ± 0.16
146. L71W  -0.465 ± 0.12
147. S43L  -0.485 ± 0.049
148. V30F  -0.552 ± 0.35
149. F12S  -0.614 ± 0.12
150. G39F  -0.621 ± 0.13
151. T46G  -0.643 ± 0.036
152. A13E  -0.645 ± 0.11
153. G31P  -0.648 ± 0.076
154. I47H  -0.65 ± 0.16
155. I47R  -0.689 ± 0.05
156. W70C  -0.698 ± 0.11
157. W70Q  -0.728 ± 0.088
158. I47C  -0.763 ± 0.097
159. R20L  -0.766 ± 0.066
160. I47D  -0.786 ± 0.11
161. F12Q  -0.828 ± 0.43
162. R20Q  -0.87 ± 0.16
163. K17F  -0.9 ± 0.2
164. V30R  -0.979 ± 0.11
165. R20C  -1.01 ± 0.18
166. R20F  -1.03 ± 0.41
167. Q15P  -1.08 ± 0.23

Source: the Human Domainome abundance scans (Beltran et al. 2025)
